Experiment [1] has as its target T1, human TIGIT-ECD (human, UniProt Q495A1 22-141).
T1 construct: extracellular domain
T1 sequence (looked up): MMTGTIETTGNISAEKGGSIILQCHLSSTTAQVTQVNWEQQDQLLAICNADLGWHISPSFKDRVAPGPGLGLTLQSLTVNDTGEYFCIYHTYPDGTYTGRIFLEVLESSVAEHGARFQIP
The experiment can be described thus: ELISA, antibody at 1 µg/mL captured by anti-human-Fc, antigen titrated. As to the method: (§1) Binding affinity of exemplified multispecific binding proteins provided herein is assessed via ELISA. Briefly, 384-well flat bottom Elisa plates are coated with 1 ug/mL anti-human-Fc protein at 20 ul/well and incubated overnight at 4° C. The following day, plates are washed 3× with wash buffer (0.05% PBS-Tween 20) and blocked for 1 hr with blocking buffer (casein, 60 μL/well) at room temperature (RT). Plates are washed 3× with wash buffer, and binding proteins as shown in Table 10 are added at 1 μg/mL in triplicates at 20 uL/well in DPBS (Dulbecco's HyClone). Plates are incubated at RT for 1 hr, washed 3× with wash buffer, and titrated antigens are added at 20 ul/well and incubated for 60 min at RT. Plates are washed 3×, and 20 uL/well NAAP substrate is added and incubated for 20 min. Plates are washed 3×, and PNPP substrate is added at 20 uL/well, and reactions are stopped, and optical density is measured using a colorimetric microplate reader set to 405 nm.
A general note: In an ELISA, binding on a coated surface is turned into a signal by an enzyme label.

The target of experiment [2] is T2, human PD-1-ECD (human, UniProt Q15116 25-170).
T2 construct: extracellular domain
T2 sequence (Q15116 25-170): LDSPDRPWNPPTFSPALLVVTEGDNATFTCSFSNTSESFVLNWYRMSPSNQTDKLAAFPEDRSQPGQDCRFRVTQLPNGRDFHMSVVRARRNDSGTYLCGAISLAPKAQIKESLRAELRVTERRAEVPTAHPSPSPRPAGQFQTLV
Described as above. The procedure:
as §1

Experiment [3] has as its target T3, CaptureSelect Kappa XL ligand.
T3 construct: also called Biotin-KappaXL; Kappa XL column
The experiment in a line: CaptureSelect Kappa XL affinity column after Protein A. From the text:
Multispecific binding proteins of the present disclosure, in clarified medium or recovered from Protein A purification, may be subjected to a second purification step using a CaptureSelect™ Kappa XL (Thermo Fisher Cat. #494321001) pre-packed affinity column. Briefly, multispecific binding proteins of the present disclosure recovered from Protein A purification are subjected to a Kappa XL affinity column which has been equilibrated with a compatible buffer, such as phosphate buffered saline (PBS) at pH 7.4. The column is then washed to remove nonspecific binding components. The bound multispecific binding protein is eluted, for example, by pH gradient (such as 20 mM Tris buffer pH 7.0 to 10 mM sodium citrate buffer pH 3.0). Binding protein fractions are detected, such as by UV absorbance or SDS-PAGE, and then are pooled.
Percent flow through (% F T) and percent elution of exemplified heteromabs of the present disclosure following kappa XL column purification essentially as described herein is assessed. Briefly, various antibody formats (as set forth in Table 3) are subjected to Kappa XL column. Flow through material is considered to comprise of impurities, such as homodimers, or misassembled antibodies, whereas the Kappa XL ligand bound material (elution material) is considered to be the correctly assembled bispecific antibody.

The source of these data is patent US20230242671A1 (Eli Lilly, published 2023).

B1: PD-1-TIGIT parental IgG1 heteromab (bispecific antibody)
heavy 1: QVQLVQSGAEVKKPGSSVKVSCKASGGTFSSYAISWVRYAPGQGLEWMGLIIPSFDTAGYAQKFQGRVAITVDESTSTAYMELSSLRSEDTAVYYCARAEHSSTGTFDYWGRGTLVTVSSASTKGPSVFPLAPSSKSTSGGTAALGCLVADYFPEPVTVSWNSGALTSGVHTFPAVLQSSGLYSLASVVTVPSSSLGTQTYICNVNHKPSNTKVDERVEPKSCDKTHTCPPCPAPEAAGGPSVFLFPPKPKDTLMISRTPEVTCVVVDVSHEDPEVKFNWYVDGVEVHNAKTKPREEQYNSTYRVVSVLTVLHQDWLNGKEYKCKVSNKALAAPIEKTISKAKGQPREPQVYTLPPSREEMTDNQVSLTCLVKGFYPSDIAVEWESNGQPENNYKTTPPVLMSDGSFFLASKLTVDKSRWQQGNVFSCSVMHEALHNHYTQKSLSLSPGK
light 1: DIQMTQSPSSVSASVGDRVTITCRASQGISSWLAWYQRKPGDAPKLLISAASSLQSGVPSRFSGSGSGTDFTLTISSLQPEDFATYYCQQANHLPFTFGGGTKVEIKRTVAAPSVFIFPPSDKQLKSGTARVVCLLNNFYPREAKVQWKVDNALQSGNSQESVTEQDSKDSTYSLISTLTLSKADYEKHKVYACEVTHQGLSSPVTKSFNRGEC
heavy 2: EVQLVESGGGLVQPGGSLRLSCAASGFDFSSYGVPWVRKAPGKGLEWVGYIDPIFGPTYYADEVKGRFTISADDSKNSLYLQMNSLKTEDTAVYYCARDYSYGYAYALDIWGQGTLVTVSSASTKGPSVFPLAPSSKSTSGGTAALGCLVKDYFPEPVTVSWNSGALTSGVHTFPAVLQSSGLYSLSSVVTVPSSSLGTQTYICNVNHKPSNTKVDKRVEPKSCDKTHTCPPCPAPEAAGGPSVFLFPPKPKDTLMISRTPEVTCVVVDVSHEDPEVKFNWYVDGVEVHNAKTKPREEQYNSTYRVVSVLTVLHQDWLNGKEYKCKVSNKALAAPIEKTISKAKGQPRRPRVYTLPPSREEMTKNQVSLVCLVKGFYPSDIAVEWESNGQPENNYKTTPPVLDSDGSFFLYSVLTVDKSRWQQGNVFSCSVMHEALHNHYTQKSLSLSPGK
light 2: RIVMTQTPLSLSVTPGQPASISCQASQRISPYLAWYLDKPGQPPQLLISRASKLASGVPDRFSGSGSGTDFTLKISRVEAEDVGVYYCQSYYVHTSSGYAFGGGTKVEIKRTVAAPSVFIFPPSDEQLKSGTASVVCLLNNFYPREAKVQWKVDNALQSGNSQESVTEQDSKDSTYSLSSTLTLSKADYEKHKVYACEVTHQGLSSPVTKSFNRGEC
notes: Unmodified control heteromab; also called PD-1-TIGIT IgG1 heteromab; PD-1-Tigit IgG1 heteromab
As a reminder, the EC50 is the concentration that produces a half-maximal response. Lower therefore signals greater potency. Turning to B1, the values for the EC50 in experiment [1] and in experiment [2] were 0.0681 nM and 0.007 nM, respectively. Besides, the “% Elution” value in experiment [3] is 99.6%. The “% Flow Through (FT)” value in experiment [3] was 0.44%.

B2: PD-1-TIGIT IgG1 heteromab (ADK on PD-1 light chain Fab region only) (bispecific antibody)
heavy 1: QVQLVQSGAEVKKPGSSVKVSCKASGGTFSSYAISWVRYAPGQGLEWMGLIIPSFDTAGYAQKFQGRVAITVDESTSTAYMELSSLRSEDTAVYYCARAEHSSTGTFDYWGRGTLVTVSSASTKGPSVFPLAPSSKSTSGGTAALGCLVADYFPEPVTVSWNSGALTSGVHTFPAVLQSSGLYSLASVVTVPSSSLGTQTYICNVNHKPSNTKVDERVEPKSCDKTHTCPPCPAPEAAGGPSVFLFPPKPKDTLMISRTPEVTCVVVDVSHEDPEVKFNWYVDGVEVHNAKTKPREEQYNSTYRVVSVLTVLHQDWLNGKEYKCKVSNKALAAPIEKTISKAKGQPREPQVYTLPPSREEMTDNQVSLTCLVKGFYPSDIAVEWESNGQPENNYKTTPPVLMSDGSFFLASKLTVDKSRWQQGNVFSCSVMHEALHNHYTQKSLSLSPGK
light 1: DIQMTQSPSSVSASVGDRVTITCRASQGISSWLAWYQRKPGDAPKLLISAASSLQSGVPSRFSGSGSGTDFTLTISSLQPEDFATYYCQQANHLPFTFGGGTKVEIKRADAAPSVFIFPPSDKQLKSGTARVVCLLNNFYPREAKVQWKVDNALQSGNSQESVTEQDSKDSTYSLISTLTLSKADYEKHKVYACEVTHKGLSSPVTKSFNRGEC
heavy 2: EVQLVESGGGLVQPGGSLRLSCAASGFDFSSYGVPWVRKAPGKGLEWVGYIDPIFGPTYYADEVKGRFTISADDSKNSLYLQMNSLKTEDTAVYYCARDYSYGYAYALDIWGQGTLVTVSSASTKGPSVFPLAPSSKSTSGGTAALGCLVKDYFPEPVTVSWNSGALTSGVHTFPAVLQSSGLYSLSSVVTVPSSSLGTQTYICNVNHKPSNTKVDKRVEPKSCDKTHTCPPCPAPEAAGGPSVFLFPPKPKDTLMISRTPEVTCVVVDVSHEDPEVKFNWYVDGVEVHNAKTKPREEQYNSTYRVVSVLTVLHQDWLNGKEYKCKVSNKALAAPIEKTISKAKGQPRRPRVYTLPPSREEMTKNQVSLVCLVKGFYPSDIAVEWESNGQPENNYKTTPPVLDSDGSFFLYSVLTVDKSRWQQGNVFSCSVMHEALHNHYTQKSLSLSPGK
light 2: RIVMTQTPLSLSVTPGQPASISCQASQRISPYLAWYLDKPGQPPQLLISRASKLASGVPDRFSGSGSGTDFTLKISRVEAEDVGVYYCQSYYVHTSSGYAFGGGTKVEIKRTVAAPSVFIFPPSDEQLKSGTASVVCLLNNFYPREAKVQWKVDNALQSGNSQESVTEQDSKDSTYSLSSTLTLSKADYEKHKVYACEVTHQGLSSPVTKSFNRGEC
notes: also called PD-1-Tigit IgG1 heteromab (with ADK LC Fab region on PD-1 arm only)
As to B2, the EC50 in experiment [1] is 0.0108 nM. This molecule also yielded an EC50 in experiment [2] of 0.0303 nM. In addition, in experiment [3], the “% Elution” value is 78.2% and the “% Flow Through (FT)” value was 21.8%.

B3: PD-1-TIGIT IgG1 heteromab (DK on PD-1 light chain Fab region only) (bispecific antibody)
heavy 1: QVQLVQSGAEVKKPGSSVKVSCKASGGTFSSYAISWVRYAPGQGLEWMGLIIPSFDTAGYAQKFQGRVAITVDESTSTAYMELSSLRSEDTAVYYCARAEHSSTGTFDYWGRGTLVTVSSASTKGPSVFPLAPSSKSTSGGTAALGCLVADYFPEPVTVSWNSGALTSGVHTFPAVLQSSGLYSLASVVTVPSSSLGTQTYICNVNHKPSNTKVDERVEPKSCDKTHTCPPCPAPEAAGGPSVFLFPPKPKDTLMISRTPEVTCVVVDVSHEDPEVKFNWYVDGVEVHNAKTKPREEQYNSTYRVVSVLTVLHQDWLNGKEYKCKVSNKALAAPIEKTISKAKGQPREPQVYTLPPSREEMTDNQVSLTCLVKGFYPSDIAVEWESNGQPENNYKTTPPVLMSDGSFFLASKLTVDKSRWQQGNVFSCSVMHEALHNHYTQKSLSLSPGK
light 1: DIQMTQSPSSVSASVGDRVTITCRASQGISSWLAWYQRKPGDAPKLLISAASSLQSGVPSRFSGSGSGTDFTLTISSLQPEDFATYYCQQANHLPFTFGGGTKVEIKRTDAAPSVFIFPPSDKQLKSGTARVVCLLNNFYPRKAKVQWKVDNALQSGNSQESVTEQDSKDSTYSLISTLTLSKADYEKHKVYACEVTHQGLSSPVTKSFNRGEC
heavy 2: EVQLVESGGGLVQPGGSLRLSCAASGFDFSSYGVPWVRKAPGKGLEWVGYIDPIFGPTYYADEVKGRFTISADDSKNSLYLQMNSLKTEDTAVYYCARDYSYGYAYALDIWGQGTLVTVSSASTKGPSVFPLAPSSKSTSGGTAALGCLVKDYFPEPVTVSWNSGALTSGVHTFPAVLQSSGLYSLSSVVTVPSSSLGTQTYICNVNHKPSNTKVDKRVEPKSCDKTHTCPPCPAPEAAGGPSVFLFPPKPKDTLMISRTPEVTCVVVDVSHEDPEVKFNWYVDGVEVHNAKTKPREEQYNSTYRVVSVLTVLHQDWLNGKEYKCKVSNKALAAPIEKTISKAKGQPRRPRVYTLPPSREEMTKNQVSLVCLVKGFYPSDIAVEWESNGQPENNYKTTPPVLDSDGSFFLYSVLTVDKSRWQQGNVFSCSVMHEALHNHYTQKSLSLSPGK
light 2: RIVMTQTPLSLSVTPGQPASISCQASQRISPYLAWYLDKPGQPPQLLISRASKLASGVPDRFSGSGSGTDFTLKISRVEAEDVGVYYCQSYYVHTSSGYAFGGGTKVEIKRTVAAPSVFIFPPSDEQLKSGTASVVCLLNNFYPREAKVQWKVDNALQSGNSQESVTEQDSKDSTYSLSSTLTLSKADYEKHKVYACEVTHQGLSSPVTKSFNRGEC
notes: also called PD-1-Tigit IgG1 heteromab (with DK LC Fab region on PD-1 arm only)
Molecule B3 registered an EC50 in experiment [1] of 0.0261 nM. In experiment [2], the EC50 turned out to be 0.0097 nM. In addition, in experiment [3], the “% Elution” value came to 73.5% and the “% Flow Through (FT)” value is 26.6%.
